The text below walks through data of patent US8017735B2, “Anti-IGFR1 antibody therapeutic combinations” (Schering Corporation, priority 2003, dated 2011).

For experiment [1], the system named is MCF7 cells. Briefly: Proliferation assay (Cell Titer-Glo) with anti-IGFR1 antibody and a chemotherapeutic agent, MCF7 cells. The experiment is classed as cell-based. The method, then: (§1) The ability of cells in culture to proliferate when exposed to varying concentrations of the 19D12/15H12 wild-type or 19D12/15H12 LCF/HCA anti-IGFR1 antibody and either paclitaxel, gefitinib, lonafarnib 4-hydroxy tamoxifen or doxorubicin was evaluated in this example.
(§2) Cell Preparation. […] The cells were trypsinized, counted and resuspended at a concentration of 25000 cells/ml in 10% HI-FBS (heat-inactivated fetal bovine serum) RPMI medium containing NEAA (non-essential amino acids), L-Glu, MEM Vitamins and PS. 100 ul of cell suspension (2500 cells) was added to each well of a BD Falcon 96 well black, clear bottom TC treated plate. The cells were allowed to attach and spread overnight at 37° C. The 10% RPMI solution was replaced with 100 μl RPMI containing 2% HI-FBS containing NEAA, L-Glu, MEM Vitamins and PS.
(§3) Solution Preparation. All assay reagents were prepared in RPMI containing 2% HI-FBS at 20× concentration and serial diluted for a total of 10 test concentrations per treatment. Every test point was prepared in triplicate on separate assay plates.
(§4) Reagent 1 and 19D12/15H12 or 19D12/15H12 LCF/HCA were set up individually as dose responses as well as in combination with each other. Cell proliferation was measured on Day4.
(§5) Assay. Cell proliferation was measured using the Promega Cell Titer-Glo Luminescent Cell Viability Assay (Promega Corp.; Madison, Wis.). This assay provided a method for determining the number of viable cells in culture based on quantitation of ATP in the culture, which indicates the presence of metabolically active cells.
(§6) The assay reagents and assay plates were equilibrated to room temperature and prepared immediately before addition to the assay plates. One volume of assay reagent was added to each well of the assay plate and shaken on an orbital platform for at least ten minutes to allow for equilibration of the ATP reaction and to ensure total lysis of all cells in the assay plate. […] Luminescence was detected on Wallac 420 Plate Reader with stacker.
(§7) The units in the tables (proliferation index) are arbitrary and are proportional to the number of viable cells observed in the culture under each respective condition.
(§8) In Tables 2-6, “ug” indicates micrograms and “uM” indicates micromolar.
For orientation: ATP-based viability assays read luminescence as a measure of living cells.

In experiment [2] the test system is H322 NSCLC cells. The experiment can be described thus: Proliferation assay (Cell Titer-Glo) with anti-IGFR1 antibody and a chemotherapeutic agent, H322 NSCLC cells. The experiment is classed as cell-based, human. As to conditions: H322, Day4, replicates. As to the method:
as §1, §2, §3, §4, §5, §6, §7, §8

“And” between values parts separate entries of the source, which are not always exact repeats. Identical values can stand only once.

Turning to `CC/C(=C(\c1ccc(O)cc1)c1ccc(OCCN(C)C)cc1)c1ccccc1` [4-hydroxy tamoxifen, 4-hydroxytamoxifen, reference compound], the proliferation index in experiment [1] (4-hydroxy tamoxifen alone 20000 ng/mL) was 80 and 72 and 87 and 71 and 61 and 67 and 70 and 92.
`COc1cc2ncnc(Nc3ccc(F)c(Cl)c3)c2cc1OCCCN1CCOCC1` [Iressa, 4-(3-chloro-4-fluoroanilino)-7-methoxy-6-(3-morpholinopropoxy)quinazoline]: the proliferation index is 59448 and 76032 and 61018 and 59690 and 63252 and 63688 and 60730 and 74464 and 65802 in experiment [2] (Iressa alone 0.0512 nM); 56752 and 73246 and 58760 and 59474 and 57314 and 58384 and 59448 and 66806 and 64854 in experiment [2] (Iressa alone 0.256 nM); 45712 and 58272 and 41264 and 40992 and 44162 and 42054 and 43124 and 45062 and 41426 in experiment [2] (Iressa alone 32 nM); 35044 and 43832 and 32072 and 32728 and 33532 and 35078 and 34864 and 36144 and 34946 in experiment [2] (Iressa alone 160 nM); 27738 and 27810 and 24546 and 24376 and 26742 and 28156 and 24528 and 28442 and 27026 in experiment [2] (Iressa alone 4000 nM); 10818 and 11294 and 10994 and 9734 in experiment [2] (Iressa alone 20000 nM).

B1: 19D12/15H12: 19D12/15H12 wild-type anti-IGFR1 antibody (antibody, listed as Homo sapiens, V domains shown)
VL: MSPSQLIGFLLLWVPASRGEIVLTQSPGTLSVSPGERATLSCRASQSIGSSLHWYQQKPGQAPRLLIKYASQSLSGIPDRFSGSGSGTDFTLTISRLEPEDFAVYYCHQSSRLPHTFGQGTKVEIKRT
VH: MEFGLSWVFLVAILKGVQCEVQLVQSGGGLVKPGGSLRLSCAASGFTFSSFAMHWVRQAPGKGLEWISVIDTRGATYYADSVKGRFTISRDNAKNSLYLQMNSLRAEDTAVYYCARLGNFYYGMDVWGQGTTVTVSS
For the molecule B1, the “Proliferation of MCF7 cells” value in experiment [1] (19D12/15H12 0.00001024 nM + doxorubicin 0.00001024 ug/mL) was 101144; in experiment [1] (19D12/15H12 0.00001024 nM + doxorubicin 0.0000512 ug/mL), 102670; in experiment [1] (19D12/15H12 0.00001024 nM + doxorubicin 0.000256 ug/mL), 100293; in experiment [1] (19D12/15H12 0.00001024 nM + doxorubicin 0.0064 ug/mL), 95276; in experiment [1] (19D12/15H12 0.00001024 nM + doxorubicin 0.8 ug/mL), 5132; in experiment [1] (19D12/15H12 0.00001024 nM + doxorubicin 4 ug/mL), 12606. Moreover, the “Proliferation of MCF7 cells” value in experiment [1] (19D12/15H12 0.00001024 nM + doxorubicin 20 ug/mL) is listed as 7789; in experiment [1] (19D12/15H12 0.0000512 nM + doxorubicin 0.00001024 ug/mL), 111388; in experiment [1] (19D12/15H12 0.0000512 nM + doxorubicin 0.0000512 ug/mL), 106322; in experiment [1] (19D12/15H12 0.0000512 nM + doxorubicin 0.000256 ug/mL) it was 107406; in experiment [1] (19D12/15H12 0.0000512 nM + doxorubicin 0.0064 ug/mL) it was 93794; in experiment [1] (19D12/15H12 0.0000512 nM + doxorubicin 0.8 ug/mL), 5649. For the same molecule, the “Proliferation of MCF7 cells” value in experiment [1] (19D12/15H12 0.0000512 nM + doxorubicin 4 ug/mL) came to 11124; in experiment [1] (19D12/15H12 0.0000512 nM + doxorubicin 20 ug/mL), 6793; in experiment [1] (19D12/15H12 0.000256 nM + doxorubicin 0.00001024 ug/mL), 86861; in experiment [1] (19D12/15H12 0.000256 nM + doxorubicin 0.0000512 ug/mL) it was 76193; in experiment [1] (19D12/15H12 0.000256 nM + doxorubicin 0.000256 ug/mL), 74312; in experiment [1] (19D12/15H12 0.000256 nM + doxorubicin 0.0064 ug/mL) it was 70725. Further, the “Proliferation of MCF7 cells” value stood at 5698 in experiment [1] (19D12/15H12 0.000256 nM + doxorubicin 0.8 ug/mL); 13174 in experiment [1] (19D12/15H12 0.000256 nM + doxorubicin 4 ug/mL); 6667 in experiment [1] (19D12/15H12 0.000256 nM + doxorubicin 20 ug/mL); 60936 in experiment [1] (19D12/15H12 0.0064 nM + doxorubicin 0.00001024 ug/mL); 60524 in experiment [1] (19D12/15H12 0.0064 nM + doxorubicin 0.0000512 ug/mL); 61820 in experiment [1] (19D12/15H12 0.0064 nM + doxorubicin 0.000256 ug/mL). Further, the “Proliferation of MCF7 cells” value worked out at 53583 in experiment [1] (19D12/15H12 0.0064 nM + doxorubicin 0.0064 ug/mL); 4702 in experiment [1] (19D12/15H12 0.0064 nM + doxorubicin 0.8 ug/mL); 10648 in experiment [1] (19D12/15H12 0.0064 nM + doxorubicin 4 ug/mL); 7057 in experiment [1] (19D12/15H12 0.0064 nM + doxorubicin 20 ug/mL); 70307 in experiment [1] (19D12/15H12 0.8 nM + doxorubicin 0.00001024 ug/mL); 64429 in experiment [1] (19D12/15H12 0.8 nM + doxorubicin 0.0000512 ug/mL). In addition, the “Proliferation of MCF7 cells” value was found to be 60055 in experiment [1] (19D12/15H12 0.8 nM + doxorubicin 0.000256 ug/mL); 56538 in experiment [1] (19D12/15H12 0.8 nM + doxorubicin 0.0064 ug/mL); 4916 in experiment [1] (19D12/15H12 0.8 nM + doxorubicin 0.8 ug/mL); 11778 in experiment [1] (19D12/15H12 0.8 nM + doxorubicin 4 ug/mL); 7693 in experiment [1] (19D12/15H12 0.8 nM + doxorubicin 20 ug/mL); 61992 in experiment [1] (19D12/15H12 4 nM + doxorubicin 0.00001024 ug/mL). The “Proliferation of MCF7 cells” value in experiment [1] (19D12/15H12 4 nM + doxorubicin 0.0000512 ug/mL) was determined as 57611; in experiment [1] (19D12/15H12 4 nM + doxorubicin 0.000256 ug/mL), 58980; in experiment [1] (19D12/15H12 4 nM + doxorubicin 0.0064 ug/mL) it was 53567; in experiment [1] (19D12/15H12 4 nM + doxorubicin 0.8 ug/mL), 4259; in experiment [1] (19D12/15H12 4 nM + doxorubicin 4 ug/mL) it was 12760; in experiment [1] (19D12/15H12 4 nM + doxorubicin 20 ug/mL) it was 8097. Besides, the “Proliferation of MCF7 cells” value in experiment [1] (19D12/15H12 20 nM + doxorubicin 0.00001024 ug/mL) stood at 59288; in experiment [1] (19D12/15H12 20 nM + doxorubicin 0.0000512 ug/mL) it was 60307; in experiment [1] (19D12/15H12 20 nM + doxorubicin 0.000256 ug/mL), 62242; in experiment [1] (19D12/15H12 20 nM + doxorubicin 0.0064 ug/mL), 54983; in experiment [1] (19D12/15H12 20 nM + doxorubicin 0.8 ug/mL), 5202; in experiment [1] (19D12/15H12 20 nM + doxorubicin 4 ug/mL), 10465. For the same molecule, the “Proliferation of MCF7 cells” value in experiment [1] (19D12/15H12 20 nM + doxorubicin 20 ug/mL) amounted to 7489.
